The data set can be described thus: label from the status in PepcDB records.
With “MKVLIGGYTKKTSKGIYELPFIGEDNEAHLEKAENIISVGGPTYFQKDGDLVFTINNAGDEGGISAFKLSDHGSNEIDRHLTPGASPAYIGINKEKKLLYTANYHTAVLSVFQYSNSGKLALVAQTTHKAESLGPRPEQVDGPHPHFFDETPAGNLVSCDLGNDTVDFYRLENNELKHLAQYKNEAGFGDRHIVFSKDGNYFYVVGELSSQINVVKFNENTWEFEDIATYKTIPEDFTEHNGAAALYITNDGKYIYNSNRGHNSITVFKVNDDHTLSLIQRISTFGDFPRDFNWDETQKYVVAANQNTDNATLYLRNGGNGTLTPIQTEIPVPEGTRVLFTKLEHHHHHH”, the protein production entry is “failed”.

“MNPIKPPFTLNQYFAAWFVHVFTASAACIGVFSLYKIYQHDYVFALWLMAITVFIDAVDGSLARLVHVKSVLPKIDGALLDNIVDYLNYVITPCFFLLVKPGMLPADYVVPITAAITITSAYQFCQDDAKTPDHFFKGFPCYWNITVFYMYIFNTSMIVNTVLLSLFCVLIFIPVKYVYPSRLDYLTESRVLKILMHCCSALYGISSFCLLVNYPETNKLWVSLSLGYVGMYLFLSFYRTYYPMFKAKITANNKD”: the protein production entry is given as “failed”.

As for “MNIKEYLQQHPQWKKRIHGFIMHPVKTRPYWWIRVWQPFYIKKGRGSVIYSSVRKDLPPFHLFQMGKYSVVEDFSCLNNAVGDIVIGDYCRIGLGNTVIGPIRIDNGVNISQNVVLIGLDHNYQDITQGIIEQGITTSPIHIGEHTIIGANVIVLPGITIGKHCFIGAGCVVTQNIPDYCVTVGNPARIIKRYNPQSQTWEKI”, the protein production result was “failed”.

For the sequence “MRAFIAIDVSESVRDALVRAQDYIGSKEAKIKFVERENFHITLKFLGEITEEQAEEIKKILEKIAKKYKKHEVNVRGIGVFPNPNYVRVIWAGVENDEIIKKIAKEIDDELAKLGFKKEGNFVAHITLGRVKFVKDKLGLAMKLKELANEDFGSFIVEAIELKKSTLTPKGPIYETLARFELSE”, the protein production result is “not failed”.

Take “MGHHHHHHSHMVSDIRRFLSAFHEPQVGLIQAAQQLLCDEQAPQRQRLLADLLHNVSQNIAAETRAEDPPWFEGLESRFQSKSGYLRYSCESRIRSYLREVSSYPSTVGAEAQEEFLRVLGSMCQRLRSMQYNGSYFDRGAKGGSRLCTPEGWFSCQGPFDMDSCLSRHSINPYSNRESRILFSTWNLDHIIEKKRTIIPTLVEAIKEQDGREVDWEYFYGLLFTSENLKLVHIVCHKKTTHKLNCDPSRIYKPQTRLKRKQPVRKRQ”: the protein production entry is reported as “failed”.

On to “MSIIAFLSYVIMTSITPGPSNILMMNEAQRFGFTGSWRFSSGILAGFAVLGILSGAFTISLYNWIPVVEPYFKLAGACYLIYLALQVGFTKNKKQDSTEARSSFISGFIFQLINIKSILFFLTVMSAFVLPFNHSLKSTIYYLALAIVLGWLALLLWSGFGSVFKRVFAKHDRVFRVLMCLLLMYSAVSIFR”, for which the protein production result is listed as “failed”.

In the case of “RPNVERDAQRRVNIRVTDEIVTALNERRIVMAFEPVVQAVSRAPAFHECLVRMKQDDGELLLAPDIVPVAEKLGLIRLVDHRVLELVVAELAAAPGVELSLNISPDTTMDADWWASIESLLGANPGVAERLIVEITETVAIQDLDDVRGFVNRLKNFGARIAIDDFGAGYTSFRNLRNLGVDIVKIDGAFVQNIARSADDRAFVQTLIDLARRLEIKTVAEWVQDEASAIMLRDWGCDYIQGRLIGLA”, the protein production entry is given as “failed”.

In the case of “MELNISESRSRSIRCIVKLGGAAITCKNELEKIHDENLEVVACQLRQAMLEGSAPSKVIGMDWSKRPGSSEISCDVDDIGDQKSSEFSKFVVVHGAGSFGHFQASRSGVHKGGLEKPIVKAGFVATRISVTNLNLEIVRALAREGIPTIGMSPFSCGWSTSKRDVASADLATVAKTIDSGFVPVLHGDAVLDNILGCTILSGDVIIRHLADHLKPEYVVFLTDVLGVYDRPPSPSEPDAVLLKEIAVGEDGSWKVVNPLLEHTDKKVDYSVAAHDTTGGMETKISEAAMIAKLGVDVYIVKAATTHSQRALNGDLRDSVPEDWLGTIIRFSK”, the protein production result is “failed”.

With “MPTKTLRIPTTDGQADAFAAFPDHSERYPGVLMYADGFGIRPVLREMALELAGHGYYVLVPNSFYRHGPAPLVELPEYIGEGIRPAVFAQLMPLIEAHTAERVLSDADAYLRFLTTQPEVGAGPVAVTGYCIGGLYAMRTAAAHPDQVAAVAAFHGPVGVDGANLFSKLTAQVHLGHAEGDMTPEALGELNQALDAAGVGYTSEIYPGTIHGFTMSDTDAYSAFGLKRHWDRLLPLLDRTL”, the protein production entry was “failed”.

Regarding “MDFHIRKATNSDAEAIQHVATTSWHHTYQDLIPSDVQDDFLKRFYNVETLHNRISATPFAVLEQADKVIGFANFIELEKGKSELAAFYLLPEVTQRGLGTELLEVGMTLFHVPLPMFVNVEKGNETAIHFYKAKGFVQVEEFTEDFYGYPLETIRFNLNHHAFEEE”, the protein production result is on record as “not failed”.

For “MKVGSQVIINTSHMKGMKGAEATVTGAYDTTAYVVSYTPTNGGQRVDHHKWVIQEEIKLEHHHHHH”, the protein production entry is “failed”.

As for “MSWESINSKDLLSIPPSQNLSATRLLTSPDGSRYLLENSSDLCHLDESFSRLAGYGSSPDVGSRSVWASQALLRSGSVISCFLSCQQSLRQYIAKRKIERGRRLYEQNNQTEAVRTWRSALKGTCQREDCFQLLGYLYQAHMDWGKFREAIEFSHQQLGISEELDSPNMRAETYLNLSRAHASLGGLERSLSYARHSLYNECGTKCRSGLVHLTVARVYLEMGGFSRALEGLQGAYKIATAIGDPSLELQVYVALSELFGRLQDNDKSATYASKAYDLSRSLQLGDLNSCHHRAALLRMAVSLRKQGELGDAQDYCKEATKLSLISGDQATYTRSIRVMGDIYRNKMDMDRAFRQYEQAMGTSASLGDRMAQMEAMDGAARCLETLRLQNKICNCRPLEFNTRLLEVASSIGAKFLVRKIRCRLALIYRALGDEDQYNTHFRLANQTDAALGLNCGACGELLGLRPENLEALPCAHILHARCAYEILRRREKNAPRSCPACNKLISSRTHFCGSVPVESESTDRCVTAASTFNTNSLSVDGLLGINSDILLPSAAFCYVKNPALDTENSALLSPKVIYHSNLSLASLSMRASSLTIDSGQNVTSSV”, the protein production entry is recorded as “failed”.

Turning to “MGTIGKKAAKGASVKFSESSTQAVIKATYLQVFGRDVYEGQRLKVQEIKLENGEISVRDFVRALAKSDLFRKLYWTPFYVCKAIEYIHRRLLGRPTYGRQENNKYFDIASKKGLYAVVDAILDSLEYTETFGEDTVPYERYLTPAGLEHHHHHH”, the protein production entry is listed as “not failed”.

Consider “MVMMFIGIDDTDSPNKYCTTYIATLLIEELKGCGYSVDMPKLIRMNPMVKYKTRGNGGVAIHILDELYSKDKEEIKNITISLVEKYTDFECENTNPGIVFLDEAKYKENREKLTNYYKKVLYDIVSVDYAEKFILKVGGEFIKYKLGRGIIGALGAISSTPPYTYELLAYRKKEMWGKKREIDEKSVIEMDKETFPYTFDNYDYENEKILIAPNTPCPVLFGIRGIDAEILLKAMHKIEGEKPERFMIFKTNHGTDVHLRKMNIKDIYPNTGVIVYGRVVEEPRDIEGGHVIFKLSDGTGEIDCMAYEPTKGFRDIIRKLIVGDYIAVYGTVREKPLGINIEKIKILKLEKKFVKDKRCPYCGGTLKAKGKKAGYKCKKCKKTIAYDEIKMIEVERDLKTGFYEVPGSARRHLSKPIQLIDLI”, for which the protein production entry is reported as “not failed”.

For “PTSSTTAALVMGDALAVALLEARGFTAEDFALSHPGGALGRKLLLRVNDIMHTGDEIPHVGLQATLRDALLEITRKNLGMTAICDDDMNIIGIFTDGDLRRVFDTGVDMRDASIADVMTRGGIRIRPGTLAVDALNLMQSRHITCVLVADGDHLLGVVHMHDLLRA”, the protein production result is given as “not failed”.

For the origin of these results see a protein production outcome set (Wang et al. 2014).
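Further: failed if final PepcDB status was selected cloned or expressed and not failed if soluble or beyond.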
